In one series the target is FGFR3 (UniProt P22607). The series is described as follows: phosphorylation enrichment, bacterial display (enrichment ratio); higher = better substrate or ligand; peptides without Tyr show the background.
The target of another series is Fyn (UniProt P06241). The description is as above.
A further series concerns c-Abl (mouse). The series is described as above.
The test system of the next series is c-Src. Described as above.
Another series has as its target MERTK (UniProt Q12866). Described as above.
The next series concerns the target Jak2 (UniProt O60674). Described as above.
The next series deals with Fes (UniProt P07332). Described as above.
A further series has as its target FGFR1 (UniProt P11362). The description is as above.
The target of a further series is EPHB2 (UniProt P29323). The description is as above.
The target of the next series is EPHB1 (UniProt P54762). The description is as above.
Chain of EPHB1 (P54762 whole entry, looked up): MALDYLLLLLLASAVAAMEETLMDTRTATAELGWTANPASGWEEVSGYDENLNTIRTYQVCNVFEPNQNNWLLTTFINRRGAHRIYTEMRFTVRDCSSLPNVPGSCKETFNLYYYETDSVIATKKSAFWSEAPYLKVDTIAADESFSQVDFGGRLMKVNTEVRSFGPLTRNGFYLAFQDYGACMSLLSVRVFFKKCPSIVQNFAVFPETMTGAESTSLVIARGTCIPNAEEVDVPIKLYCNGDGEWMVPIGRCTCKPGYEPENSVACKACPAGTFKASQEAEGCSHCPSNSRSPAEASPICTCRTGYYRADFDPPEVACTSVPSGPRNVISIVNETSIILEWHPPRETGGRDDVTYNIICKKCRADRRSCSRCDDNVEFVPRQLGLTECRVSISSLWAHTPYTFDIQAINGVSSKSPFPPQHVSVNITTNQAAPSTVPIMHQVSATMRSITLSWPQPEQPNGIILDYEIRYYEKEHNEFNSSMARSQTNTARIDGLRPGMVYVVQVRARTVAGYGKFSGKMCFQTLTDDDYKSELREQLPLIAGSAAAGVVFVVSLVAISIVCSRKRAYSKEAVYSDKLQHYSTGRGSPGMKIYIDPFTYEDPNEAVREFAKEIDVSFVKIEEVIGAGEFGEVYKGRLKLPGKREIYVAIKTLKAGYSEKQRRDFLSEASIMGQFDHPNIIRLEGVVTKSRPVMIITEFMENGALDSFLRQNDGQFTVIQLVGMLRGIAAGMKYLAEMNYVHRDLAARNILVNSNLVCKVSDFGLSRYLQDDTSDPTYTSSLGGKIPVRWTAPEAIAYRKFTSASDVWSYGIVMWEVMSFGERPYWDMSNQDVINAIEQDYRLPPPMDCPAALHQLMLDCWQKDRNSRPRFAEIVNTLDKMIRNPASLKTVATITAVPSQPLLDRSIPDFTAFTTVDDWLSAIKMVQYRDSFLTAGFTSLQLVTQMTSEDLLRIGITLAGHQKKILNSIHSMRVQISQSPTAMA
The test system of a further series is Fer (mouse). The series is described as above.
The test system of a further series is AncSZ. The description is as above.
The target in another series is Hck (UniProt P08631). The description is as above.
Chain of Hck (P08631 whole entry, looked up): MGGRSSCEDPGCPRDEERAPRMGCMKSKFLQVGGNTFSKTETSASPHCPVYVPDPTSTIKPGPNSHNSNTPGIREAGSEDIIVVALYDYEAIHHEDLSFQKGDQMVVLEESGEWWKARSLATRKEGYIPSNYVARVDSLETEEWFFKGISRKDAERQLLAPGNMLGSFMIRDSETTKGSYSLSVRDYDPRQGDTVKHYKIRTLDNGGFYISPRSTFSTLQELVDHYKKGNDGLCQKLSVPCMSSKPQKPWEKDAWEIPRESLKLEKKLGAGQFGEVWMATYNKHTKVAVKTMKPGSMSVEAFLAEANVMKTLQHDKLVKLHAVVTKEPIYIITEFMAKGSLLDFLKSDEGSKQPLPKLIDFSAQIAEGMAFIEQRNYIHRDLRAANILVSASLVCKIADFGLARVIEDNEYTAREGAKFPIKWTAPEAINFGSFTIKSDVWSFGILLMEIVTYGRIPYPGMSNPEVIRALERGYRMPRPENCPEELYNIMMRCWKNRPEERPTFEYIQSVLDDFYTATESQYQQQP
The next series deals with SHP2-C SH2. The experiment in a line: SH2 binding enrichment of the phosphorylated peptide, bacterial display (enrichment ratio); higher = better substrate or ligand; peptides without Tyr show the background.
The next series concerns the target Grb2 SH2 (UniProt P62993). The description is as above.
The target in the next series is c-Src SH2. The series is described as above.
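Throughout, for SH2 binding enrichment of the phosphorylated peptide, bacterial display: peptide library displayed on the E. coli surface as eCPX fusions, selected cells deep-sequenced, score is each peptide's frequency after selection divided by its frequency in the input.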
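Throughout, for phosphorylation enrichment, bacterial display: 11-residue human phosphosite peptides and single-mutation variants displayed on the E. coli surface, counted by deep sequencing, each peptide's frequency after selection divided by its frequency in the unselected input library; frequency after pTyr selection over input frequency; kinase dosed for 20-30% of maximal phosphorylation in three min.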

Chain of Fyn (P06241 whole entry, looked up): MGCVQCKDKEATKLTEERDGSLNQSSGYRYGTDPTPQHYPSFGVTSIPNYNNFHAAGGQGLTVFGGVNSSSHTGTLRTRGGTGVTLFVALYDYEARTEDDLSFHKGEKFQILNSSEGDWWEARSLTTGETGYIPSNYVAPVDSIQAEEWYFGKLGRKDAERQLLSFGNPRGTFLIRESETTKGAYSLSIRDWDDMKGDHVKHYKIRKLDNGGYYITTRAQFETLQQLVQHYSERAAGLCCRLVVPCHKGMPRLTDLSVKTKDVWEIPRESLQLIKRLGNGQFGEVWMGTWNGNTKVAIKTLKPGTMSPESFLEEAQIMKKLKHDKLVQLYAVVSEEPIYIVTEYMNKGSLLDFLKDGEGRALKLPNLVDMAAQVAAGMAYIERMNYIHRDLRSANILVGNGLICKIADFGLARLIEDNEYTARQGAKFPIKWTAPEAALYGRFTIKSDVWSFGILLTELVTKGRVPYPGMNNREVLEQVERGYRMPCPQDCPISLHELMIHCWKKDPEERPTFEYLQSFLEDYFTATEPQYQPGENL
Chain of Grb2 SH2 (P62993 whole entry, looked up): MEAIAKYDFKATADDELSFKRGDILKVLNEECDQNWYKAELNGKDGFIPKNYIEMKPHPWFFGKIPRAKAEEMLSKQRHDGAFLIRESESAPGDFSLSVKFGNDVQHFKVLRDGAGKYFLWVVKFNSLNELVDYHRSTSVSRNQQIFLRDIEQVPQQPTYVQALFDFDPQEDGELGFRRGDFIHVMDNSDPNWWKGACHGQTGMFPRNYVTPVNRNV
Chain of Jak2 (O60674 whole entry, looked up): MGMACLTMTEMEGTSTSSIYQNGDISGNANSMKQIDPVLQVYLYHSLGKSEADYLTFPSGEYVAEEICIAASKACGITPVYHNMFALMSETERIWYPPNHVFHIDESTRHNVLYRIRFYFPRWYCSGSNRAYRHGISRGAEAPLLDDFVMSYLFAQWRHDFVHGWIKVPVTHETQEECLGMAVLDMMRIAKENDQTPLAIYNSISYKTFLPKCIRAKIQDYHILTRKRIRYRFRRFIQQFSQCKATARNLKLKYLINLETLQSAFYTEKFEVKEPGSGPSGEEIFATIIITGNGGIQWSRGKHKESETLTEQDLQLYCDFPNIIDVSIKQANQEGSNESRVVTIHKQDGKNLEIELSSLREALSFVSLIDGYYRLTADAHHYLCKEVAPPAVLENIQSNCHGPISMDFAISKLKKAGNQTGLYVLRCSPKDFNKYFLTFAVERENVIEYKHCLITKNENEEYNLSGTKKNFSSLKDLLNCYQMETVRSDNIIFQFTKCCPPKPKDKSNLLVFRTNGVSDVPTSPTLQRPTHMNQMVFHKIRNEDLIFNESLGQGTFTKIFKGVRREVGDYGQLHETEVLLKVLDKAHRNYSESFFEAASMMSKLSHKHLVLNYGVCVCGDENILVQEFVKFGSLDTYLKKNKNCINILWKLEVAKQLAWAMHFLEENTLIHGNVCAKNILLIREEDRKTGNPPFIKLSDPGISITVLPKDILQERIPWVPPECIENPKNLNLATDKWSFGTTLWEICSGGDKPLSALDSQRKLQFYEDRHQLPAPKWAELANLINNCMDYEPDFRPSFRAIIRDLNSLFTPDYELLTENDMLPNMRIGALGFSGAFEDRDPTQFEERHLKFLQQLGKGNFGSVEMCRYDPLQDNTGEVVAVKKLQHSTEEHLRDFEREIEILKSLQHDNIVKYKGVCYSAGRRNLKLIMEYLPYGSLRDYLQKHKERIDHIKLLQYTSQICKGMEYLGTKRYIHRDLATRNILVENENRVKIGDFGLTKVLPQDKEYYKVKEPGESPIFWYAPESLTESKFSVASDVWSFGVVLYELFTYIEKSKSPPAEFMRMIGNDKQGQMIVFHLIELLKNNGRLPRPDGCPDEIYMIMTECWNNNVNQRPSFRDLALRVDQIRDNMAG
Chain of FGFR3 (P22607 whole entry, looked up): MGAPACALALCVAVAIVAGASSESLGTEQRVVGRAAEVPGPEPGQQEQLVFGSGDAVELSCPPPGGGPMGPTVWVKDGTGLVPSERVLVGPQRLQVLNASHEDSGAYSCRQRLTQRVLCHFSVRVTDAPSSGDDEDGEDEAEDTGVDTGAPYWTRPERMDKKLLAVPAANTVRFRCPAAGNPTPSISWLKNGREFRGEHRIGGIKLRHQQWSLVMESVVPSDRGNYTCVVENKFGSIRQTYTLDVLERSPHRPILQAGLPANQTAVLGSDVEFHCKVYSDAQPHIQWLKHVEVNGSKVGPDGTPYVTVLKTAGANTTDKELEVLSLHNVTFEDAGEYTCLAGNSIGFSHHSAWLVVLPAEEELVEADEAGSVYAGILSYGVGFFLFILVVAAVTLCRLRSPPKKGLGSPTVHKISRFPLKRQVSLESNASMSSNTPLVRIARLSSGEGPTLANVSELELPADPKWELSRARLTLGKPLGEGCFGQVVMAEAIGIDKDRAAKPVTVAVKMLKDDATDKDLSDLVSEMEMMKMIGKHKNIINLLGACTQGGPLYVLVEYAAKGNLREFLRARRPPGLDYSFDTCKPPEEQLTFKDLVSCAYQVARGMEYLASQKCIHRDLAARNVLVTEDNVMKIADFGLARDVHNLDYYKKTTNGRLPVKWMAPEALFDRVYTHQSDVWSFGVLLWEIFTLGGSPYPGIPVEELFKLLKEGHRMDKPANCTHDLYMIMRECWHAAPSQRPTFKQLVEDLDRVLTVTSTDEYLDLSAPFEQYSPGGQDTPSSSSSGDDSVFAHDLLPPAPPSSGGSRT
Chain of FGFR1 (P11362 whole entry, looked up): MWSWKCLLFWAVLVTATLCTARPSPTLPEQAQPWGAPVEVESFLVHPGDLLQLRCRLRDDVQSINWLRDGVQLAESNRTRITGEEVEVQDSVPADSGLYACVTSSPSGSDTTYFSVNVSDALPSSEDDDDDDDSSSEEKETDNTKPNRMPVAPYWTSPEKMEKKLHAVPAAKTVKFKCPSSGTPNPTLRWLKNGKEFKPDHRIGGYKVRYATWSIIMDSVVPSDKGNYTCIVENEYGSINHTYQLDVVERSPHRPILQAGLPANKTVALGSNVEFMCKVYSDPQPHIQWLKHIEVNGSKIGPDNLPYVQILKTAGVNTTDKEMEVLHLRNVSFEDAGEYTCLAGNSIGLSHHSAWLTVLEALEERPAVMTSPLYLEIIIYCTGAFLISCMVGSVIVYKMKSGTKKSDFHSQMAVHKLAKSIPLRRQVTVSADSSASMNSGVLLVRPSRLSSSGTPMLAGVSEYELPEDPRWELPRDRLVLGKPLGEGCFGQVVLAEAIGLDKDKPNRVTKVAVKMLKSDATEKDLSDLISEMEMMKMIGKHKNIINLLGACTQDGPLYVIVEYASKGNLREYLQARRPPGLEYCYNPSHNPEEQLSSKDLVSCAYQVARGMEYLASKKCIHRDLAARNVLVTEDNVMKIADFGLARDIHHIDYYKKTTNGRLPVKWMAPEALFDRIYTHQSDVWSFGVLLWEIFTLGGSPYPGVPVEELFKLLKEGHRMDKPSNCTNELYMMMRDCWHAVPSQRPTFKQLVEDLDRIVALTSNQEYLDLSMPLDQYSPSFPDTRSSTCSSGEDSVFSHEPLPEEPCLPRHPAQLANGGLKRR

As for YTFNSYYMHWV [IGHV1-46_Y51_T49N], the phosphorylation enrichment in the series with FGFR3 was 5.38; with Fyn it was 1.54; in the series with c-Abl (mouse), 1.1; with c-Src it was 2.06; with MERTK, 6.9; in the series with Jak2, 6.39. Besides, the phosphorylation enrichment with Fes came to 1.6; with FGFR1, 6.62; in the series with EPHB2 it was 4.46; in the series with EPHB1, 4.7; with Fer (mouse), 5.35; in the series on AncSZ, 1.77. For the same sequence, the phosphorylation enrichment in the series with Hck turned out to be 2.52. Also, the SH2 binding enrichment in the series with SHP2-C SH2 was 0.951; with Grb2 SH2 it was 1.12; with c-Src SH2, 0.839.

As to YVSSFYHAFSG [ACTN4_Y265], the phosphorylation enrichment in the series with FGFR3 amounted to 2.32; with Fyn, 2.76; in the series with c-Abl (mouse), 1.28; in the series on c-Src it was 3.68; with MERTK, 8.9; with Jak2, 0.895. The phosphorylation enrichment came to 0.884 in the series with Fes; 3.31 with FGFR1; 1.41 with EPHB2; 2.21 with EPHB1; 0.564 in the series with Fer (mouse); 1.04 in the series with AncSZ. In the series with Hck, the phosphorylation enrichment was found to be 2.82. Besides, the SH2 binding enrichment worked out at 1.79 with SHP2-C SH2, 1.2 with Grb2 SH2 and 2.2 in the series with c-Src SH2.

YYSSEYHYVGG [CTSC_Y345]: the phosphorylation enrichment with FGFR3 is 16.1; with Fyn, 5; with c-Abl (mouse) it was 12.8; in the series on c-Src, 4.92; with MERTK, 12.1; with Jak2, 7.76. For the same sequence, the phosphorylation enrichment with Fes worked out at 0.945; with FGFR1, 17.4; with EPHB2, 17.6; in the series with EPHB1, 15.5; in the series with Fer (mouse), 4.51; in the series on AncSZ, 6.21. For the same sequence, the phosphorylation enrichment in the series with Hck is 6.11. Moreover, the figures for the SH2 binding enrichment with SHP2-C SH2, with Grb2 SH2 and with c-Src SH2 were 1.13, 0.929 and 1.98, respectively.

For the origin of these results see the supplement of paper PMC10065799, “High-throughput profiling of sequence recognition by tyrosine kinases and SH2 domains using bacterial peptide display” (eLife, 2023).
